± gives the uncertainty stated by the source.
Experiment: self-splicing fitness, log relative to wild type (ln ratio); higher = more splicing; Tetrahymena group I intron in knt gene, E. coli kanamycin selection, DiMSum; sequences stand for … in CUCUCU…GGAGGGAAAAGUUAUCAGGCAUGCACCUGGUAGCUAGUCUUUAAACCAAUAGAUUGCAUCGGUUUAAAAGGCAAGACCGUCAAAUUGCGGGAAAGGGGUCAACAGCCGUUCAGUACCAAGUCUCAGGGGAAACUUUGAGAUGGCCUUGCAAAGGGUAUGGUAAUAAGCUGACGGACAUGGUCCUAACCACGCAGCCAAGUCCUAAGUCAACAGAUCUUCUGUUGAUAUGGAUGCAGUUCACAGACUAAAUGUCGGUCGGGGAAGAUGUAUUCUUCUCAUAAGAUAUAGUCGGACCUCUCCUUAAUGGGAGCUAGCGGAUGAAGUGAUGCAACACUGGAGCCGCUGGGAACUAAUUUGUAUGCGAAAGUAUAUUGAUUAGUUUUGGAGUACUCGUGGUCG
Method in brief: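 A randomised library covering all eight P1ex-region intron nucleotides was built with the intron in the knt kanamycin-resistance gene on pET-22b(+) and held in E. coli BL21(DE3). Cells were grown overnight at 37°C or 30°C on LB agar, with or without 25 μg/mL kanamycin, plus 100 μg/mL carbenicillin, 50 μM IPTG and 0.2% rhamnose, and pooled colonies were amplicon-sequenced on an Illumina HiSeq 2500. DiMSum fitness is the error-weighted combination of wild-type-normalised replicate fold changes, kanamycin versus none.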

Sequence | self-splicing fitness (ln) (30 °C) | self-splicing fitness (ln) (37 °C)
UAAAAGCAAUAUUACGCGGU | -3.58 ± 0.29 | -2.34 ± 0.27
UAAAAGCAAUAUUACGCUGG | -1.46 ± 0.13 | -1.65 ± 0.17
UAAAAGCAAUAUUACGGCUG | 0.0596 ± 0.093 | 0.0696 ± 0.12
UAAAAGCAAUAUUACGGCUU | -0.922 ± 0.088 | -0.468 ± 0.11
UAAAAGCAAUAUUACGGGAG | -2.66 ± 0.14 | -1.25 ± 0.11
UAAAAGCAAUAUUACGGUUC | -3.1 ± 0.17 | -2.42 ± 0.2
UAAAAGCAAUAUUACGUAAA | -1.34 ± 0.077 | -1.1 ± 0.09
UAAAAGCAAUAUUACGUAGG | -2 ± 0.083 | -1.22 ± 0.11
UAAAAGCAAUAUUACGUAUG | -1.07 ± 0.078 | -0.324 ± 0.095
UAAAAGCAAUAUUACGUCAA | -1.57 ± 0.11 | -1.4 ± 0.098
UAAAAGCAAUAUUACGUCUU | -0.765 ± 0.058 | -0.487 ± 0.076
UAAAAGCAAUAUUACGUGGC | -3.46 ± 0.2 | -2.74 ± 0.2
UAAAAGCAAUAUUACGUUCG | -0.052 ± 0.085 | -0.0686 ± 0.11
UAACAGCAAUAUUACGAAAA | -3.2 ± 0.21 | -1.18 ± 0.15
UAACAGCAAUAUUACGAAUU | -3.02 ± 0.13 | -1.86 ± 0.18
UAACAGCAAUAUUACGACGC | -2.37 ± 0.12 | -1.76 ± 0.16
UAACAGCAAUAUUACGACGG | -1.27 ± 0.085 | -0.26 ± 0.11
UAACAGCAAUAUUACGAGGU | -4.14 ± 0.23 | -2.58 ± 0.23
UAACAGCAAUAUUACGAGUG | -0.621 ± 0.038 | -0.34 ± 0.056
UAACAGCAAUAUUACGAUGG | -1.82 ± 0.087 | -0.665 ± 0.1
UAACAGCAAUAUUACGCAAA | -3.11 ± 0.19 | -2.3 ± 0.12
UAACAGCAAUAUUACGCCCA | -0.674 ± 0.12 | 0.423 ± 0.15
UAACAGCAAUAUUACGCGCA | -0.471 ± 0.078 | 0.0314 ± 0.12
UAACAGCAAUAUUACGCGCU | -1.93 ± 0.096 | -0.612 ± 0.11
UAACAGCAAUAUUACGCUCA | -0.26 ± 0.091 | 0.174 ± 0.13
UAACAGCAAUAUUACGCUUA | -0.77 ± 0.071 | 0.122 ± 0.1

Sequence | self-splicing fitness (ln) (30 °C) | self-splicing fitness (ln) (37 °C)
UAACAGCAAUAUUACGGAUU | -3.02 ± 0.12 | -0.666 ± 0.094
UAACAGCAAUAUUACGGCCC | -2.08 ± 0.35 | 
UAACAGCAAUAUUACGGGUA | -0.895 ± 0.061 | 0.0689 ± 0.074
UAACAGCAAUAUUACGGGUC | -3.89 ± 0.17 | -2.62 ± 0.2
UAACAGCAAUAUUACGGUCA | -0.282 ± 0.073 | 0.714 ± 0.085
UAACAGCAAUAUUACGUACC | -0.513 ± 0.19 | -1.7 ± 0.24
UAACAGCAAUAUUACGUAUU | -3.38 ± 0.14 | -1.94 ± 0.18
UAACAGCAAUAUUACGUGAA | -1.61 ± 0.065 | -0.749 ± 0.083
UAACAGCAAUAUUACGUGAG | -0.729 ± 0.046 | -0.471 ± 0.071
UAAGAGCAAUAUUACGAGUG | -3.74 ± 0.23 | -1.16 ± 0.22
UAAGAGCAAUAUUACGAUCA | -2.23 ± 0.29 | -0.554 ± 0.19
UAAGAGCAAUAUUACGCCAU | -2.59 ± 0.46 | -1.46 ± 0.38
UAAGAGCAAUAUUACGCCGA | -2.94 ± 0.47 | 
UAAGAGCAAUAUUACGCUUA | -3.19 ± 0.32 | -2.63 ± 0.35
UAAGAGCAAUAUUACGCUUG | -2.66 ± 0.23 | -1.38 ± 0.18
UAAGAGCAAUAUUACGGACG | -1.89 ± 0.2 | -1.67 ± 0.26
UAAGAGCAAUAUUACGGAGG | -3.41 ± 0.32 | -1.95 ± 0.46
UAAGAGCAAUAUUACGGCUC | -1.82 ± 0.26 | -1.32 ± 0.32
UAAGAGCAAUAUUACGGGAU | -3.55 ± 0.31 | -2.99 ± 0.28
UAAGAGCAAUAUUACGGUGA | -3.83 ± 0.23 | -2.14 ± 0.16
UAAGAGCAAUAUUACGUCGC |  | -3.39 ± 0.37
UAAGAGCAAUAUUACGUUGC | -2.74 ± 0.29 | -2.32 ± 0.4
UAAUAGCAAUAUUACGAAAU |  | -2.07 ± 0.36
UAAUAGCAAUAUUACGAACG | -0.579 ± 0.071 | -0.187 ± 0.082
UAAUAGCAAUAUUACGAACU | -1.37 ± 0.14 | -1.62 ± 0.17
UAAUAGCAAUAUUACGAGAC | -3.38 ± 0.28 | -2.03 ± 0.28

Sequence | self-splicing fitness (ln) (30 °C) | self-splicing fitness (ln) (37 °C)
UAAUAGCAAUAUUACGAGAU | -4.03 ± 0.43 | -2.38 ± 0.47
UAAUAGCAAUAUUACGAGGC | -3.59 ± 0.35 | -1.46 ± 0.33
UAAUAGCAAUAUUACGAGUC | -2.97 ± 0.19 | -3.77 ± 0.42
UAAUAGCAAUAUUACGCACG | -1.1 ± 0.16 | 0.193 ± 0.24
UAAUAGCAAUAUUACGCGAG | -1.62 ± 0.14 | -1.46 ± 0.13
UAAUAGCAAUAUUACGGACU | -1.25 ± 0.15 | -1.43 ± 0.18
UAAUAGCAAUAUUACGGCCC | -2.07 ± 0.34 | -0.336 ± 0.46
UAAUAGCAAUAUUACGGCGG | -1.27 ± 0.15 | -0.245 ± 0.16
UAAUAGCAAUAUUACGGGUG | -1.9 ± 0.096 | -0.875 ± 0.094
UAAUAGCAAUAUUACGGUAU | -3.69 ± 0.21 | -2.68 ± 0.23
UAAUAGCAAUAUUACGUAGG | -2.37 ± 0.13 | -1.06 ± 0.14
UAAUAGCAAUAUUACGUCCU | -0.907 ± 0.19 | -0.798 ± 0.23
UAAUAGCAAUAUUACGUCGU | -2.91 ± 0.34 | -0.94 ± 0.23
UAAUAGCAAUAUUACGUGGG | -2.91 ± 0.3 | -3.08 ± 0.27
UAAUAGCAAUAUUACGUUUA | -1.86 ± 0.15 | -1.81 ± 0.12
UACAAGCAAUAUUACGACGG | -0.767 ± 0.059 | -0.442 ± 0.079
UACAAGCAAUAUUACGAGAG | -3.24 ± 0.17 | -2.65 ± 0.18
UACAAGCAAUAUUACGAGGA | -2.98 ± 0.2 | -1.8 ± 0.14
UACAAGCAAUAUUACGAUUA | -0.0989 ± 0.079 | 0.278 ± 0.085
UACAAGCAAUAUUACGCACC | -1.62 ± 0.14 | -1.42 ± 0.23
UACAAGCAAUAUUACGCCGU | -2.13 ± 0.16 | -1.62 ± 0.18
UACAAGCAAUAUUACGCGAC | -3.51 ± 0.27 | -1.5 ± 0.22
UACAAGCAAUAUUACGCUGG | -2.54 ± 0.15 | -1.87 ± 0.15
UACAAGCAAUAUUACGGAGC | -3.08 ± 0.21 | -2.78 ± 0.34
UACAAGCAAUAUUACGUCAU | -3.94 ± 0.16 | -1.05 ± 0.096
